Measurements taken from patent US20220119505A1.

B1: F45 single-domain antibody (VHH)
VHH: QVQLQESGGGLVQPGGSLRLSCLVSGGTFSWYAMGWFRQAPGKEREFVATVSRGGGSSYYADSVKGRFTISRDNAKNTVYLQMNSLKPEDTAVYYCAAGRGAPSDTGRPDEYDYWGQGTQVTVSS
B2: F45::(GGGGS)3::F45 homodivalent protein construct (VHH)
chain: QVQLQESGGGLVQPGGSLRLSCLVSGGTFSWYAMGWFRQAPGKEREFVATVSRGGGSSYYADSVKGRFTISRDNAKNTVYLQMNSLKPEDTAVYYCAAGRGAPSDTGRPDEYDYWGQGTQVTVSSGGGGSGGGGSGGGGSQVQLQESGGGLVQPGGSLRLSCLVSGGTFSWYAMGWFRQAPGKEREFVATVSRGGGSSYYADSVKGRFTISRDNAKNTVYLQMNSLKPEDTAVYYCAAGRGAPSDTGRPDEYDYWGQGTQVTVSS

Molecular target: Atto 488 labelled FaeG (Escherichia coli)

Row | Binder | Hydrodynamic radius (nm)
1 | B1 | 3.02
2 | B2 | 2.97
